Experimental data from patent US20060228349A1 (published 2006).

Assays:
[1] = target: T1, Biotinylated ADDL preparations (bADDLs) (N-terminal biotin); experiment: BIACORE, bADDL as antigen; column IgG1#1 (row shifted one column to the left)
T1 construct: Oligomer, number of copies not fixed; also called biotinylated ADDL antigen; high molecular weight 10% bADDL

biotin-Aβ1-20 = target: T2, biotin-Aβ1-20 (biotin (position not given)); experiment: BIACORE, biotin-Aβ1-20 as antigen; column IgG1#1
T2 peptide: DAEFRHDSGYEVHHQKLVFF

[2] = target: T3, Aβ-derived diffusible ligands (synthetic ADDLs), soluble oligomers of amyloid β1-42; experiment: solution equilibrium titration, free IgG by ELISA, GraFit; SE 0.09
T3 construct: Oligomeric preparation of synthetic Aβ1-42 in DMSO/F12 (monomer, trimer, tetramer, 12-24mer on SDS-PAGE); number of copies not fixed; also called soluble Aβ oligomers

[3] = target: T4, ADDL fibril preparation (Aβ1-42 fibrils); experiment: solution equilibrium titration, free IgG by ELISA, GraFit; SE 0.47
T4 construct: Fibrillar assembly; number of copies not fixed

[4] = target: T5, amyloid beta (1-40) peptide; experiment: solution equilibrium titration, free IgG by ELISA, GraFit; SE 5.05
T5 construct: Used as monomer-like control; also called Aβ1-40; monomer preparation

Aβ12-28 peptide = target: T6, Aβ12-28 peptide; experiment: competition dot blot with peptides
T6 peptide: VHHQKLVFFAEDVGSNK

Aβ1-12 peptide = target: T7, Aβ1-12 peptide; experiment: competition dot blot with peptides
T7 peptide: DAEFRHDSGYEV

Aβ1-20 peptide = target: T8, Aβ1-20 peptide; experiment: solution equilibrium titration, free IgG by ELISA, GraFit; SE 24.41
T8 peptide: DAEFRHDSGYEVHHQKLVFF

B1: murine anti-ADDL monoclonal antibody 20C2 (antibody, mouse IgG1, V domains shown)
VH: QVTLKESGPGILKPSQTLSLTCSLSGFSLSTSGMGVGWFRQPSGKGLEWLAHIWWDDDKSYNPSLKSRLTISKYTSRNQVFLTITSVDTADTATYYCARRQLGLRSIDAMDYWGQGTSVTVSS
VL: DVLMTQTPLSLPVSLGDQASISCRSSQSILHSNGNTYLEWYLQKPGQSPKLLIYKVSNRFSGVPDRFSGSGSGTDFTLKISRVEAEDLGVYYCFQGSLVPLTFGAGTKLELK
notes: also called Mouse-20C2
Kd [1]: 4.1 nM
Kd (biotin-Aβ1-20): 3.4 nM
Kd [2]: 0.92 nM
Kd [3]: 3.62 nM
Kd [4]: 30.5 nM
binding result (Aβ12-28 peptide): no binding (tested: 200 pmol peptide in 200 µL)
binding result (Aβ1-12 peptide): no binding (tested: 200 pmol peptide in 200 µL)
Kd (Aβ1-20 peptide): 71.3 nM
